# Laboratory results reported in patent US20180155451A1 (published 2018).
# B1: GpH7-A5/GpH7-B3 variant E333_09D/GpL16-k0 (antibody, human IgG1, kappa)
# heavy 1: not shown
# heavy 2: not shown
# light: DIVMTQSPLSLPVTPGEPASISCQASESLVHSNRNTYLHWYLQKPGQSPQLLIYKVSNRFSGVPDRFSGSGSGTDFTLKISRVEAEDVGVYYCSQNTHVPPTFGQGTKVEIERTVAAPSVFIFPPSDEQLKSGTASVVCLLNNFYPREAKVQWKVDNALQSGNSQESVTEQDSKDSTYSLSSTLTLSKADYEKHKVYACEVTHQGLSSPVTKSFNRGEC
# notes: heterodimerized; also called He Ab E333_09D
# B2: GpH7-A5/GpH7-B3 variant E333_11K/GpL16-k0 (antibody, human IgG1, kappa)
# heavy 1: not shown
# heavy 2: not shown
# light: B1 light
# notes: heterodimerized; also called He Ab E333_11K
# B3: GpH7-A5/GpH7-B3 variant E333_12R/GpL16-k0 (antibody, human IgG1, kappa)
# heavy 1: not shown
# heavy 2: not shown
# light: B1 light
# notes: heterodimerized; also called He Ab E333_12R
# B4: GpH7-A5/GpH7-B3 variant E333_13S/GpL16-k0 (antibody, human IgG1, kappa)
# heavy 1: not shown
# heavy 2: not shown
# light: B1 light
# notes: heterodimerized; also called He Ab E333_13S
# B5: GpH7-A5/GpH7-B3 variant E333_14T/GpL16-k0 (antibody, human IgG1, kappa)
# heavy 1: not shown
# heavy 2: not shown
# light: B1 light
# notes: heterodimerized; also called He Ab E333_14T
# B6: GpH7-A5/GpH7-B3 variant E333_15Y/GpL16-k0 (antibody, human IgG1, kappa)
# heavy 1: not shown
# heavy 2: not shown
# light: B1 light
# notes: heterodimerized; also called He Ab E333_15Y
# B7: GpH7-A5/GpH7-B3 variant E333_16H/GpL16-k0 (antibody, human IgG1, kappa)
# heavy 1: not shown
# heavy 2: not shown
# light: B1 light
# notes: heterodimerized; also called He Ab E333_16H
# B8: GpH7-A5/GpH7-B3 variant G236_02A/GpL16-k0 (antibody, human IgG1, kappa)
# heavy 1: not shown
# heavy 2: not shown
# light: B1 light
# notes: heterodimerized; also called He Ab G236_02A
# B9: GpH7-A5/GpH7-B3 variant G236_20W/GpL16-k0 (antibody, human IgG1, kappa)
# heavy 1: not shown
# heavy 2: not shown
# light: B1 light
# notes: heterodimerized; also called He Ab G236_20W; GpH7-A5/GpH7-B3-03-20W/GpL16-k0
# B10: GpH7-A5/GpH7-B3 variant H268_02A/GpL16-k0 (antibody, human IgG1, kappa)
# heavy 1: not shown
# heavy 2: not shown
# light: B1 light
# notes: heterodimerized; also called He Ab H268_02A
# B11: GpH7-A5/GpH7-B3 variant H268_05P/GpL16-k0 (antibody, human IgG1, kappa)
# heavy 1: not shown
# heavy 2: not shown
# light: B1 light
# notes: heterodimerized; also called He Ab H268_05P
# B12: GpH7-A5/GpH7-B3 variant H268_07I/GpL16-k0 (antibody, human IgG1, kappa)
# heavy 1: not shown
# heavy 2: not shown
# light: B1 light
# notes: heterodimerized; also called He Ab H268_07I
# B13: GpH7-A5/GpH7-B3 variant H268_08L/GpL16-k0 (antibody, human IgG1, kappa)
# heavy 1: not shown
# heavy 2: not shown
# light: B1 light
# notes: heterodimerized; also called He Ab H268_08L
# B14: GpH7-A5/GpH7-B3 variant H268_12R/GpL16-k0 (antibody, human IgG1, kappa)
# heavy 1: not shown
# heavy 2: not shown
# light: B1 light
# notes: heterodimerized; also called He Ab H268_12R
# B15: GpH7-A5/GpH7-B3 variant H268_14T/GpL16-k0 (antibody, human IgG1, kappa)
# heavy 1: not shown
# heavy 2: not shown
# light: B1 light
# notes: heterodimerized; also called He Ab H268_14T
# B16: GpH7-A5/GpH7-B3 variant H268_20W/GpL16-k0 (antibody, human IgG1, kappa)
# heavy 1: not shown
# heavy 2: not shown
# light: B1 light
# notes: heterodimerized; also called He Ab H268_20W
# B17: GpH7-A5/GpH7-B3 variant I332_12R/GpL16-k0 (antibody, human IgG1, kappa)
# heavy 1: not shown
# heavy 2: not shown
# light: B1 light
# notes: heterodimerized; also called He Ab I332_12R
# B18: GpH7-A5/GpH7-B3 variant I336_01G/GpL16-k0 (antibody, human IgG1, kappa)
# heavy 1: not shown
# heavy 2: not shown
# light: B1 light
# notes: heterodimerized; also called He Ab I336_01G
# B19: GpH7-A5/GpH7-B3 variant I336_02A/GpL16-k0 (antibody, human IgG1, kappa)
# heavy 1: not shown
# heavy 2: not shown
# light: B1 light
# notes: heterodimerized; also called He Ab I336_02A
# B20: GpH7-A5/GpH7-B3 variant I336_03V/GpL16-k0 (antibody, human IgG1, kappa)
# heavy 1: not shown
# heavy 2: not shown
# light: B1 light
# notes: heterodimerized; also called He Ab I336_03V
# B21: GpH7-A5/GpH7-B3 variant I336_04F/GpL16-k0 (antibody, human IgG1, kappa)
# heavy 1: not shown
# heavy 2: not shown
# light: B1 light
# notes: heterodimerized; also called He Ab I336_04F
# B22: GpH7-A5/GpH7-B3 variant I336_06M/GpL16-k0 (antibody, human IgG1, kappa)
# heavy 1: not shown
# heavy 2: not shown
# light: B1 light
# notes: heterodimerized; also called He Ab I336_06M
# B23: GpH7-A5/GpH7-B3 variant I336_10E/GpL16-k0 (antibody, human IgG1, kappa)
# heavy 1: not shown
# heavy 2: not shown
# light: B1 light
# notes: heterodimerized; also called He Ab I336_10E
# Molecular target: T1, FcγRIa (human, UniProt P12314 16-292)
# T1 construct: extracellular domain; also called FcgRI; CD64
# Assay: SPR; vs GpH7-A5/GpH7-B3/GpL16-k0=100
# T1 sequence (P12314 16-292): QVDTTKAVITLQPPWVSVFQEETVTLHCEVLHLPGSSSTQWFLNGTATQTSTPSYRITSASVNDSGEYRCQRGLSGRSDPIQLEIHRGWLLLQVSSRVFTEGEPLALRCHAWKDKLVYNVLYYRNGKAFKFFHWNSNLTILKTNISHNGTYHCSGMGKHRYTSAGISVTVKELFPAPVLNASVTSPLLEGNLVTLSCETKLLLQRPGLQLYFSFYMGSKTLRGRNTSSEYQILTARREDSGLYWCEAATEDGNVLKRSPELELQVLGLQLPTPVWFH
row,Binder,He/Con_1a
1,B1,104 % of control
2,B2,102 % of control
3,B3,102 % of control
4,B4,103 % of control
5,B5,102 % of control
6,B6,101 % of control
7,B7,101 % of control
8,B8,100 % of control
9,B9,105 % of control
10,B10,109 % of control
11,B11,109 % of control
12,B12,108 % of control
13,B13,107 % of control
14,B14,106 % of control
15,B15,112 % of control
16,B16,107 % of control
17,B17,100 % of control
18,B18,109 % of control
19,B19,106 % of control
20,B20,105 % of control
21,B21,106 % of control
22,B22,108 % of control
23,B23,108 % of control
